{"source": "the DeepSol protein solubility set", "experiment": "soluble on expression in E. coli; label from the status in PepcDB or PDB records", "data": [{"sequence": "MGHHHHHHGGHMSLDEFDLIHSITPRTIHHSSVDVGIGDDAALYTAKHGVQEIVCVDTMVEDVHFKLHYSSPEDIGYKALAVNISDIAAMGGIPKFYLVSLAVPSKWTESEIKAMYEGMNELAKLYHMDLIGGDTVSTADKLVVTVTVIGEIEKGQACLRSLAKPNDIVFVTGEIGSSAAGLSLLLEETNPQNSSVETDYFIHRHKRPEPRVSVGRLCSIFKRAALNDVSDGLASELNEIAEASCVSIEIVESMLPIHSDLPKLHPNWKEWALFGGEDFELTGTVSNEEWEVLKQECAALHLPITKIGYVREKTKSKVILKTDQTSMILEKKGYNHFEGGS", "values": [{"measurement": "soluble on expression in E. coli", "result": "soluble"}]}, {"sequence": "SSGLVPRGSHMSEMIYGIHAVQALLERAPERFQEVFILKGREDKRLLPLIHALESQGVVIQLANRQYLDEKSDGAVHQGIIARVKPGRQYQENDLPDLIASLDQPFLLILDGVTDPHNLGACLRSADAAGVHAVIVPKDRSAQLNATAKKVACGAAESVPLIRVTNLARTMRMLQEENIWIVGTAGEADHTLYQSKMTGRLALVMGAEGEGMRRLTREHCDELISIPMAGSVSSLNVSVATGICLFEAVRQRS", "values": [{"measurement": "soluble on expression in E. coli", "result": "soluble"}]}, {"sequence": "MGSDKIHHHHHHMNTTASPSRLLGVGLYTASQASSYTGIPAKDIRRWMFGYSASGVEHPGLWAPEIAFLDDKLLGFHDLLEIRFVHAFRQHGVSLQAIRSASLQAREMFGQRYPFTCRRFQTDGRDIFATVLDETGDEALLDLVKRQYAFKQVITPSLYEGIDYAGEESAKRWYPVKRSKAVVLDPARNFGKPVLTITGIDTAAIYHSYLAEGQSAKRVALLYEIPPAAVEAAVNFEHRIAA", "values": [{"measurement": "soluble on expression in E. coli", "result": "not soluble"}]}, {"sequence": "MKKTAIAIAVALAGFATVAQAEVKLHESGAGLVKPGASVEISCKATGYTFSSFWIEWVKQRPGHGLEWIGEILPGRGRTNYNEKFKGKATFTAETSSNTAYMQLSSLTSEDSAVYYCATGNTMVNMPYWGQGTTVTVSSASTKGPSVFPLAPSSKSTSGGTAALGCLVKDYFPEPVTVSWNSGALTSGVHTFPAVLQSSGLYSLSSVVTVPSSSLGTQTYICNVNHKPSNTKVDKKVEPKSCSAWSHPQFEK", "values": [{"measurement": "soluble on expression in E. coli", "result": "soluble"}]}, {"sequence": "MDIETIVNEFETRAGTLLRYYTGLLERSKVQPCCFKLYNDPFDMVYVMMNSKLFSHVYIKDCKVRQSFELASPKHTEGLIRSIEGHYVGYELHDGKQLSISDMMASQLFEDEYFMYGLQTYAESNNSDVFKCLENGFDTDTLEGIQSSNTDVIANIEMLYQLATGINEPVPELVEGLKLVTEFVQDENATQEDYKALERKLNDLKASYYSLSKLAAALEHHHHHH", "values": [{"measurement": "soluble on expression in E. coli", "result": "soluble"}]}, {"sequence": "IPLARTVRCNCIHIDDGPVRMRAIGKLEIIPASLSCPRVEIIATMKKNDEQRCLNPESKTIKNLMKAF", "values": [{"measurement": "soluble on expression in E. coli", "result": "soluble"}]}, {"sequence": "METKAKNKTQLAYEYILSRIENGVYGPGYRVVIDQIARELGLSSIPVREAIRQLEAEGLVEFKPYTGAVVSNINEKEYIETLSVLAVLEGYATALGSANLTKEAINELERLNERMERALEELELERFSELNYEFHSLIYAHCGNAYLEEQIKQIWQRMKRIRVYGFTFVPQRAKASIEEHREIIRLLHEQAPPHEIEQYVRQHKINTAEAFKRRR", "values": [{"measurement": "soluble on expression in E. coli", "result": "not soluble"}]}, {"sequence": "MSLSAGLRFTLEVDGLPPDAFAVVSFHLNQSFSSLFSLDLSLVSQQFLSLEFAQVLDKMAYLTVWQGDDVQRRVKGVVTWFELGENDKNQMLYSMKVCPPLWRTGLRQNFRIFQNEDIESILATILKENGVTEWSPLFSEPHPSREFCVQYGETDYDFLCRMAAEEGIFFYEEHAQKSTDQSLVLCDTVRYLPESFEIPWNPNTRTEVSTLCISQFLYSAQIRPSSVVTKDYTFKRPGWAGRFDQEGQHQDYQRTQYEVYDYPGRFKGAHGQNFACWQMDGWRNNAEVARGTSRSPEIWPGRRIALTGHPQANLNREWQVVASELHGEQPQAVPGRRGSGTTLNNHFAVIPADRTWRPQPLLKPLVDGPQSAVVTGPAGEEIFCDEHGRVRVKFNWDRYNPSNQDSSCWIRVAQAWAGTGFGNLAIPRVGQEVIVDFLNGDPDQPIIMGRTEGHHHHHH", "values": [{"measurement": "soluble on expression in E. coli", "result": "not soluble"}]}, {"sequence": "SASFVGTPLPESENISLYQSRVTVAELEMLASRFVGRTRVKVAFQAYWSQQREELLPNQQAPSSLIRHTERVLAGVFGASSAKLVLTSALQGRNMQLEEVATIVDEAS", "values": [{"measurement": "soluble on expression in E. coli", "result": "not soluble"}]}, {"sequence": "MGSDKIHHHHHHMQTLEQLTSPEHSAWITLSQWIDNARNHCEVIKKDQSSAERELFTMQMPTSSPMGAVIYETGGILIHYGWLRILGSGSFKLPRGLMDWNFSKSFSESGEKPKYLLVADDVIGGYFALNGGSLGNNIGKIYYYSSKDLTWHNLNFTYTEFLAWVLNGDVEAFYQGLFWKNWQDDVKQLDGNQVFVFTPDLNQDRKIAIDERQKQEVNIETHYQANFAEKNKFDLAYSVA", "values": [{"measurement": "soluble on expression in E. coli", "result": "not soluble"}]}, {"sequence": "MWTVTKIRADYEGWWLFSDWPENIVEKYQYQDFDDMFKHYQQLINQCKVQFDNYVTGKYNIYAFYNNCDMNYCEDCEEDLQIFYSFIVLQNNEVYYKLPIIDLEHHHHHH", "values": [{"measurement": "soluble on expression in E. coli", "result": "soluble"}]}, {"sequence": "MGSDKIHHHHHHMTTTSTPGLFERPITLPDADAQSRLAKLVGMDDKIRRLSNVLAVLINPAGLKEWLDQHHAHSTGLLDAVLRRPPLVVLSGDVGSGKTELAETIGDMVARQEGIDITLLPLSLSSRGQGRVGEMTQLVSAAFDHAFHEASKVKSSRGSRSRGGVILLVDEADALAQSREADQMHHEDRAGVNAFIRGIDRLANGHLPAAVLMCTNRLNALDPAVRRRAADILVFERPDEAQRLEVLHRRLGDAGFGKADLQSLVAATGEQAKRPYGFTYSDLTQRLLPAIVLDAYPQGPIKPSRAIELARAMAPTPPFKDSTARGC", "values": [{"measurement": "soluble on expression in E. coli", "result": "not soluble"}]}, {"sequence": "MGSSHHHHHHSSGRENLYFQGHMNRTLYTLLFHLGLPLVALRLWWRARQAPAYAKRIGERFSLSLPEVPPGGIWVHAVSVGESIAAAPMVRALLERHPQLPVTVTCMTPTGSERIRALFGEQVRHCYLPYDLPWAAARFLDRVRPRLAVIMETELWPNHIHACAVRGIPVALANARLSERSARGYARFAGLTRPMLAELSWIAVQTEAEAERFRRLGARPECVSVTGSIKFDLRIDPQLPLAAAALREEWDATARPLWIAASTHAGEDEIVLAAHRRLLETRPDALLILVPRHPERFAGVHELCRREGFATVRRSGGEPVARATQVLLGDTMGELLFLYALADIAFVGGSLVPNGGHNLLEPAALGKPVFAGPHLFNFLDIAAQLRDAGALLEVTDAGELCDGLARLWAQPEVATAMATAGEKVLRNNQGALERLLAGLARLLGRGG", "values": [{"measurement": "soluble on expression in E. coli", "result": "soluble"}]}, {"sequence": "MTLLTVKHLTITDTWTDQPLVSDVNFTLTKGETLGVIGESGSGKSITCKSIIGLNPERLGVTGEIIFDGTSMLSLSESQLKKYRGKDIAMVMQQGSRAFDPSTTVGKQMFETMKVHTSMSTQEIEKTLIEYMDYLSLKDPKRILKSYPYMLSGGMLQRLMIALALALKPKLIIADEPTTALDTITQYDVLEAFIDIKKHFDCAMIFISHDLTVINKIADRVVVMKNGQLIEQGTRESVLHHPEHVYTKYLLSTKKKINDHFKHVMRGDVHD", "values": [{"measurement": "soluble on expression in E. coli", "result": "not soluble"}]}, {"sequence": "MHHHHHHGTSLYKKAGSENLYFQGITTRTARQCGQADYGWLQARYTFSFGHYFDPKLLGYASLRVLNQEVLAPGAAFQPRTYPKVDILNVILDGEAEYRDSEGNHVQASAGEALLLSTQPGVSYSEHNLSKDKPLTRMQLWLDACPQRENPLIQKLALNMGKQQLIASPEGAMGSLQLRQQVWLHHIVLDKGESANFQLHGPRAYLQSIHGKFHALTHHEEKAALTCGDGAFIRDEANITLVADSPLRALLIDLPV", "values": [{"measurement": "soluble on expression in E. coli", "result": "soluble"}]}, {"sequence": "MARKSKGSRSSTRAVKQTDHFQVDVKLQSRPDHVRAPRANNENVNYTPVKEAKIQKILDHQLYNTHYVEYQVEMSDGTEEMLTEFDFDNKKTQKMLAEYKFKVTELEDDGSKEYVVEKIVAHRYPNDRLNQPLYLVMWRGFPDPVSNTEMWGEELENCQELLDAYNEEHDIDLSKTVMNKPPKKSKHQDTSDDSEESEDEEEKSPRKRSSKKRRAASVSDSDSDSDSDFDKKKWKKNKAKRSKRDDSSDDDSEMERRRKKSKKSKKSKKFKKSEKRKRAVNDSSSDDEDEEEKPEKRSKKSKKAVIDSSSEDEEEEKSSKKRSKKSKKESDEEQQASDSEEEVVEVKKNSKSPKKTPKKTAVKEESEESSGDEEEEVVKKKKSSKINKRKAKESSSDEEEEVEESPKKKTKSPRKSSKKSAAKEESEEESSDNEEEEEVDYSPKKKVKSPKKSSKKPAAKVESEEPSDNEEEEEEVEESPIKKDKTPRKYSRKSAAKVESTESSGNEEEEEVEESPKKKGKTPRKSSKKSAAVEESDNEEEDVEESPKKRTSPRKSSKKRAAKEESEESSDNEVEEVEDSPKKNDKTLRKSPRKPAAKVESEESFGNEEEEEVEESPKKKGKTPRKSSKKSAAKEESEESSDDEEEEQAEETNGSHTESPTKSKTDESDNSTSSDEDDE", "values": [{"measurement": "soluble on expression in E. coli", "result": "not soluble"}]}, {"sequence": "MQYSMGIDAGGTYTDSIIIRDSDGKVMDSNKALTTYPDLLAGIKNSIDGLDEQYLKDVKMVSVSTTLATNTILEKNGYPVGLILVGDYEVPERMQAEYYTVVKGGHDHHGAELTSLDMEAVEAFVNKVKDRVSAFAVSSYFSIRNPAHELAIKARLKELGFSVVCGHELSLDLGAYERGITAYLNAQLIPIASQFILSIREEIRRRGMDARLLMLKCDGSVVGINEALEKPIESIFSGPAASLVGASHLSGLETCAVIDVGGTSTDVSMLENGLPELCSEGAVVGGWQTKVKAIRMETSAMGGDSHVWVKNMKINIGPRRVIPLCVAAVKYPGFLEILKKGRIPGTMHLEENIQPTKFFIRTGLEASNLGSYEKELFDRIGDTPASLNDIFWETQKTLSPGLLDSLLRKRLIQAIGFTPTDALHVLGEYRGWNTEASIAGAKLLERYTHKDYIESARALEHHHHHH", "values": [{"measurement": "soluble on expression in E. coli", "result": "not soluble"}]}, {"sequence": "MGSDKIHHHHHHLPKLREDFKMQNKSVFILGASGETGKVLLKEILGQNLFSKVTLIGRRKLTFEEEAYKNVNQEVVDFEKLDVYASAFQGHDVGFCCLGTTRSKAGAEGFVRVDRDYVLKSAELAKAGGCKHFNLLSSRGADKSSSFLYLQVKGEVEAKVEELKFDRLSVFRPGVLLCDRQESRPGEWLARKFFGSLPDSWASGYAVPVVTVVRAMLNNLVSPSSGQMELLENKAILHLGKDRDVPKL", "values": [{"measurement": "soluble on expression in E. coli", "result": "soluble"}]}, {"sequence": "GSPEETLVIALYDYQTNDPQELALRCDEEYYLLDSSEIHWWRVQDKNGHEGYAPSSYLVEKSP", "values": [{"measurement": "soluble on expression in E. coli", "result": "soluble"}]}, {"sequence": "MSQANRTNGLVDYKELETNILSSIQEGKPLTGRDGALTPFIKRLLEASLEGEIESHMSAKSEENNRRNGRNAKTLRTSAGSFELLTPRDREGNFEPQIVKKRQTSLHPELEAKVLSTYASGMGYRDIASHVEEIYDHKISAAEISSITDKLLPIINEWRSRPLQSVYPIVFMDGMFFKVKEDGHCVSKCMYNILGINQNGRKEVLGFYLAESEGATFWLGVLNDLKERGVEDILIACIDGLKSFPTAINSVFPSAEVQLCIVHQIRNSLKYVSSKDVKVFMNDLKKIYRASSKEIAENYLLELEEKWGEKYPLVIKSWQNNWENLSSYFKYSGPVRKLIYTTNPIEGLHRQIRKFTKTKGSFTSTNALYKQVYCAIKKVEQKWIMALPNWALTMSQLDIFFPGRLKIELN", "values": [{"measurement": "soluble on expression in E. coli", "result": "soluble"}]}, {"sequence": "MKNIVSAFGIIPRNNRLMYIHSYQSYVWNTMVSRRIEEYGLRPVPGDLVLKGATPTYIEEDDVDNYSIHDVVMPLPGFDVIYPKHKISEAYREMLAADNLDIDNMRHTIRDYSLSGAYRRIIIRPQSVSWEVVAYDDPKIPLFNTDVDNLEGKPPPVFASEGKYRALKMDFSLPPSTYATMAIREVLKMDTSIKNQTQLNTSWLR", "values": [{"measurement": "soluble on expression in E. coli", "result": "not soluble"}]}, {"sequence": "MGHHHHHHSHMRPELLEYYIKVILDYNTAHNKVALSECYTVASVAEMPQNYRPHPQRFTYCSQVLGLHCYKKGIHYWEVELQKNNFCGVGICYGSMNRQGPESRLGRNSASWCVEWFNTKISAWHNNVEKTLPSTKATRVGVLLNCDHGFVIFFAVADKVHLMYKFRVDFTEALYPAFWVFSAGATLSICSPK", "values": [{"measurement": "soluble on expression in E. coli", "result": "not soluble"}]}]}
